Laboratory results as given in US20150098945A1 (Daiichi Sankyo, published 2015).

T1: rat ROBO4 (pCI-raROBO4-transfected HEK293 cells) (rat, UniProt Q80W87 38-949 at identity 0.93))
T1 chain: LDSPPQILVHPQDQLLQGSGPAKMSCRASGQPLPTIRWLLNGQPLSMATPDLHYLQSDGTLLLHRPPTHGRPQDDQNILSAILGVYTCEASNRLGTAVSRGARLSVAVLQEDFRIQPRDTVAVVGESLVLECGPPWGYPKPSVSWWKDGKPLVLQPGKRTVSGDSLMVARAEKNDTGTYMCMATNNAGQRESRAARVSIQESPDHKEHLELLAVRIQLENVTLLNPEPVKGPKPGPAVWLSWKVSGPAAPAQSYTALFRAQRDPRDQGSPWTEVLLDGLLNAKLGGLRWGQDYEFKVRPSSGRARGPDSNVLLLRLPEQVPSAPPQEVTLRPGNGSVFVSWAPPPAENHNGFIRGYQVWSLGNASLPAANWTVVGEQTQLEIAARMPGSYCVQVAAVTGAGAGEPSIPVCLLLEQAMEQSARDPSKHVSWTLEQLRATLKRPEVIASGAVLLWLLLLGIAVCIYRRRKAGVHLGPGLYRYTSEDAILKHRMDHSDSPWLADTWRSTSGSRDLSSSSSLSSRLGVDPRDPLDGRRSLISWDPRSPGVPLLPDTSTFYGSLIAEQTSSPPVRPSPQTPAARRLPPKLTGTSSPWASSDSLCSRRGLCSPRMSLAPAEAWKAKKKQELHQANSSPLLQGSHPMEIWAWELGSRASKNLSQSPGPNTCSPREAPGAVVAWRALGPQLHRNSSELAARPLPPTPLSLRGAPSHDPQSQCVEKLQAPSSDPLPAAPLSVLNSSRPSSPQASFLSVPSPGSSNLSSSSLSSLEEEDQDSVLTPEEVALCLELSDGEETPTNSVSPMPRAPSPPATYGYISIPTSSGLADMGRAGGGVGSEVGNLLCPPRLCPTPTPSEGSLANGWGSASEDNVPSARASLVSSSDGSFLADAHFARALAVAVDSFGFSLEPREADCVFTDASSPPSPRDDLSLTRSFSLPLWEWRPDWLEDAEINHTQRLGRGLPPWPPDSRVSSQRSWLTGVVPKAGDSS

T2: mouse ROBO4 (pCI-mROBO4-transfected HEK293 cells) (mouse, UniProt Q8C310 28-1012)
T2 sequence: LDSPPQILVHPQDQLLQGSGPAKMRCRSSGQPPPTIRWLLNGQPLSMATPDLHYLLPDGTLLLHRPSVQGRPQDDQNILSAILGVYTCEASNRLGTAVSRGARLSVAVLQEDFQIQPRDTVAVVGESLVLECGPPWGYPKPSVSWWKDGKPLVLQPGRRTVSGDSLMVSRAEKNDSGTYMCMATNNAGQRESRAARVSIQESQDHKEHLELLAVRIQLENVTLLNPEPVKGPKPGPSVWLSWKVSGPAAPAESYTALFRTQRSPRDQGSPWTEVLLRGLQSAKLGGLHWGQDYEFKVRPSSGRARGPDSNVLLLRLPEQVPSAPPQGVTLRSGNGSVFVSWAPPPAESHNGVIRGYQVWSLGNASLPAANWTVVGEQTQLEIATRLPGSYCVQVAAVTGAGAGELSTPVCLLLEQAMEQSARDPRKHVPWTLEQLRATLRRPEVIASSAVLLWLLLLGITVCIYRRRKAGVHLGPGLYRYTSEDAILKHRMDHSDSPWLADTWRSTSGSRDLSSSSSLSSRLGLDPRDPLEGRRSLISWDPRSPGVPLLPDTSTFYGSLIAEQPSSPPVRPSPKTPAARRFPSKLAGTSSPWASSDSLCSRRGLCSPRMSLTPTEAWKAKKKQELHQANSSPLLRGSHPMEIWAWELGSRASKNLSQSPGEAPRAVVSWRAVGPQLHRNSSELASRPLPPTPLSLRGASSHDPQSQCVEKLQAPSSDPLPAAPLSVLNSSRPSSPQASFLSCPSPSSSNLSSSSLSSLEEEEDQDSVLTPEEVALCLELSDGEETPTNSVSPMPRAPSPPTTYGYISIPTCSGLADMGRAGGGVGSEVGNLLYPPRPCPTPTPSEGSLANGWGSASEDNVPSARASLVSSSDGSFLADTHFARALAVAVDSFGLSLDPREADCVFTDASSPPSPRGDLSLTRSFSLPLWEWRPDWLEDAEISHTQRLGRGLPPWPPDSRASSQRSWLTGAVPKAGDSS


Key:
[1] = target: T1, rat ROBO4 (pCI-raROBO4-transfected …); assay: flow cytometry (FC500), HEK293 cells transfected with pCI-raROBO4, FITC goat anti-human IgG Fc; control histogram IgG (human IgG)
[2] = target: T2, mouse ROBO4 (pCI-mROBO4-transfected …); assay: flow cytometry, HEK293 cells transfected with pCI-mROBO4, anti-mouse IgG FITC; control histogram IgG (Mouse IgG2a)
Description: HEK293 cells were inoculated at a concentration of 1.5×10⁶ cells/dish to a 60-mm dish (manufactured by Corning Inc.) and cultured overnight in a DMEM medium containing 10% FBS at 37° C. under 5% CO₂ conditions. On the next day, the HEK293 cells were transfected with pCI-hROBO4, pCI-mROBO4, pCI-raROBO4, pCI-FLAG-cynoROBO4-1, pCI-FLAG-cynoROBO4-2, pCI-hROBO1, pCI-hROBO2, or pCI-hROBO3 using FuGENE6 Transfection Reagent and further cultured overnight at 37° C. under 5% CO₂ conditions. On the next day, the expression vector-transfected cells were treated with TrypLE Express (manufactured by Life Technologies Corp.), washed with PBS containing 5% FBS, and then suspended in PBS containing 5% FBS. The obtained cell suspension was used in flow cytometry analysis.
Each cell suspension prepared in 4)-3-1 was centrifuged, and the supernatant was removed. Then, MAb1 or a negative control Mouse IgG2a was added at a concentration of 10 μg/mL to 2×10⁵ expression vector-transfected cells, and the resulting suspension was left standing at 4° C. for 1 hour. […] Data was analyzed using Flowjo. The histogram of FITC fluorescence intensity was prepared. The antibody was determined to bind in a cross-species manner when the histogram of MAb1 was shifted to a stronger fluorescence intensity region compared with the histogram of the negative control Mouse IgG2a.

| Binder | binding result [1] | binding result [2] |
| --- | --- | --- |
| humanized MAb1 antibody H-2143 (antibody, human IgG2, kappa, V domains shown, Human IgG2 / kappa constant regions; also called hMAb1-H4-type heavy chain + hMAb1-L2-type light chain) VH: EVQLVESGGGLVQPGGSLRLSCAASGFTFSTYAMSWVRQAPGKRLEWVATISQGGTYTYYPDSVKGRFTISRDNAKNTLYLQMNSLRAEDTAVYYCARLIYYDYLDYWGQGTLVTVSS VL: DIVMTQSPLSLPVTLGEPASISCRSSQSLENENKNLYLNWYLQKPGQSPQLLIYRVSNRFSGVPDRFSGSGSGTDFTLKISRVEAEDVGVYYCLQVTHVPWTFGPGTKVDIKR | no binding (tested: 10 µg/mL) |  |
| anti-ROBO4 mouse monoclonal antibody MAb1 (antibody, mouse IgG1, V domains shown, Mouse IgG1 (gamma1), kappa light chain, purified from hybridoma supernatant; also called parent antibody MAb1) VH: EVQLVESGGGLVKPGGSLKLSCAASGFTFSTYAMSWVRQTPEKRLEWVATISNGGTYTYYPDSVKGRFTISRDNAENTLYLQMSSLRSEDTAMYFCARLIYYDYLDYWGHGTTLTVSS VL: DAVMTQTPLSLPVSLGDQASISCRSSQSLENSNGNTYLNWYFQKPGQSPQLLIYRVSNRFSGVLDRFSGSGSGTDFTLKISRVEAEDFGVYFCLQVTHVPWTFGGGTKLEIKR |  | no binding (tested: 10 µg/mL) |
